Measurements as given in patent publication US20180002425A1.

Columns and labels:
[1] = target: wild-type human TpoR on Ba/F3-hMpl cells (human) (UniProt P40238); assay: cell-based or functional assay
[2] = target: TpoR-IL6ST chimeric receptor on HEK293T SIE-bla reporter cells (clone CR2-9) (human) (UniProt P40238); assay: cell-based or functional assay
[3] = target: granulocyte colony stimulating factor receptor (UniProt Q99062)
Sequence of granulocyte colony stimulating factor receptor (Q99062 25-836 limits assumed): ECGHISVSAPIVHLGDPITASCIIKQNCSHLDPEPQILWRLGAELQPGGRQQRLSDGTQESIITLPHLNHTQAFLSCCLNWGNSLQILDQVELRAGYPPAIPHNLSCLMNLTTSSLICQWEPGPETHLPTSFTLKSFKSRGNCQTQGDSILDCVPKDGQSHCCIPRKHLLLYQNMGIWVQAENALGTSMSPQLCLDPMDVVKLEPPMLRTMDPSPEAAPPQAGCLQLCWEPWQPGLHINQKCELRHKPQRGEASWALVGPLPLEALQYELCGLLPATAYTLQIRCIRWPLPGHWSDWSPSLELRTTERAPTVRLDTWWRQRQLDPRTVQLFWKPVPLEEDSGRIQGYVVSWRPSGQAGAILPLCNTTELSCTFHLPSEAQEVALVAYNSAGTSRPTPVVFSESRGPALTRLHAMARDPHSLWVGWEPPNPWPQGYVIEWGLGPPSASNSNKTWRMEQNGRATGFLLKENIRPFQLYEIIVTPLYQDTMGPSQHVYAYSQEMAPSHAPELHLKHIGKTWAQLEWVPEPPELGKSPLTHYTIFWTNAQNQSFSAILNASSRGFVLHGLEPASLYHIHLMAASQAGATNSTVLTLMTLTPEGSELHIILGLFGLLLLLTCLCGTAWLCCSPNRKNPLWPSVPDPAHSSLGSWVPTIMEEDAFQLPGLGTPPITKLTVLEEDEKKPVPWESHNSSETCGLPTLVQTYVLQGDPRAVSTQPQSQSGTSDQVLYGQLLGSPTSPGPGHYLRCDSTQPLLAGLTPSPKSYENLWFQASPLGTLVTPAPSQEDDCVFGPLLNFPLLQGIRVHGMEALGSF

Row | EC50, long-term proliferation assay (MTS) of Ba/F3-hMPL cells [1] | EC50, short-term fluorescence (FRET beta-lactamase) reporter assay [2] | Responsive Population (fraction of reporter cells in the gate, Pacific Blue-A against AmCyan-A, FRET beta-lactamase reporter; unit not given) [3] | Substance
1 | 70 pM | 20 pM | – | Thrombopoietin (from UniProt P40225 22-353) (ligand)
2 | – | – | 84.2 | granulocyte colony stimulating factor (from UniProt P09919 31-204) (ligand)
